Test results taken from the supplement of paper PMC9170038.

Test system: K4 kissing-loop RNA reporter
Assay: apparent KD of K4 kissing-loop reporter; higher = weaker reporter binding
Details: Eterna round: R107
Protocol: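 RNA-MaP round R107: designed RNA switches with theophylline, tryptophan, arginine or FMN aptamers are transcribed on-chip within common flanks. They are titrated with a labelled K4 kissing-loop RNA reporter in RNA-MaP buffer (100 mM Tris pH 7.5, 80 mM KCl, 4 mM MgCl2), without ligand or with the indicated ligand. Median apparent KD per design.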

[1] = input ligand: theophylline 20 uM
[2] = input ligand: tryptophan 2.4 mM
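Also: bound reporter read as fluorescence of individual clusters on recovered sequencing chips by microscopy, with normalized cluster intensities fitted with a binding model.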

Sequence | apparent KD of K4 kissing-loop reporter (input ligand: FMN 200 uM) [nM] | apparent KD of K4 kissing-loop reporter (input ligand: arginine 13.2 mM) [nM] | apparent KD of K4 kissing-loop reporter (input ligand: none) [nM] | apparent KD of K4 kissing-loop reporter [1] [nM] | apparent KD of K4 kissing-loop reporter [2] [nM]
ACCCGGGCCCGAAAGGGCCCGGGAAGAGAUACCAGCAGCGAAAGCUGCCCUUGGCAGCUCACUUAGUGAUGUUGAGAAUAGGGCG [#21 K4 Theophylline A Same State] | 657 | 221 | 554 | 299 | 225
ACCUGUAGUGAUGUUACUGGUGGUUAGGAAGGAGCGCCCGCGUGGGCAGGUAGGUCGCCUAAGCUAUGUGGGAAACCGCAUAUUG [#14 K4 Arginine A Same State] | 75.5 | 73.8 | 76.9 | 75.3 | 93.3
ACGACGCAUAGUGAUACCAGCUAUAUAUGAGUGAUGUUCUACCUAAAAUGGUAAUAAUUUAGCCCUUGGCAGCACUAUGCGUCAG [KL-SSTheoB4] | 380 | 456 | 377 | 562 | 262
ACGGGCGGCUGAAGGAGCGGGCGGGCCCGAGUGAUGUUCGGGUGGGCCGUGAGGCCCGGAGCCCAGGUAGGUCGCGGUUCCGUCC [#2 Same State - Arginine B Attempt #21 (HarryS)] | 135 | 104 | 182 | 171 | 164
ACGUAGUACGUAGGAUAUCAGAGAUCAGUUAGUGAGAUCGAGUGAUGUUCGAUCAAGUGUUCAUUUUGAGAAGGAUGUAGUAGGA [KL-SSFMN-B7] | 263 | 320 | 387 | 428 | 238
ACGUAGUACGUAGGAUAUCAGAGAUCAGUUAGUGAGAUCGAGUGAUGUUCGAUCAUGUGUUCAGUUUGAGAAGGAUGUAGUAGGA [KL-SSFMN-B5] | 214 | 280 | 355 | 408 | 198
ACGUAGUUCUAGGAUACCAGCCAAGAAGCCAGGACAAAAGUCCUGGCUGCCAGUGAUGUUGGCCCUUGGCAGCCUAGAACUACGA [Omei KL Theo B Exc B v10] | 128 | 113 | 121 | 109 | 121
ACGUAGUUCUAGGAUACCAGCCAAGGCCCAGGACAAAAGUCCUGGGUCGCCAGUGAUGUUGGCCCUUGGCAGCCUAGAACUACGA [Omei KL Theo B Exc B v11] | 421 | 358 | 457 | 387 | 444
ACGUUCGGAACGGCCGCCACUAUGGGCAGUGAUGUUGCCCAUAACCGGUUUUGCGUCAGAUCCCUUAGGACCGGGUUCUGGUAUA [Soonlesoso] | 78.4 | 68.6 | 73.4 | 65.8 | 75.2
ACUAAGGUUUUUGGAGCAGUGAUGUUGCUCCGAGGACCGGUACGGCCGCCACUCGGUGCAUGUAUGCGCUUCACUCCGGAAGUUG [Bieron] | 152 | 140 | 165 | 148 | 139
ACUCCGAGUGAUGUUAAGAGAUUCUCUGUUAAGGAUAUUUUGCGCAAAAGAAGGUAACCCGGUUUUCGUAAUCUGUUAAUGCGGA [theeternabot_exclusion_KL_FMN_A_38] | 572 | 408 | 581 | 532 | 503
ACUGGGUUGACGAAAGUCAACAAAUGAGAAGGAGCGCACGAAAGUGCAGGUAGGUCGCUCAUUCCAGUGAUGUUGGAUCACCAGA [#SwitchBubble 19 #K4Late] | 531 | 456 | 836 | 831 | 464
AGAAACUUGUAUGUCGGGUGUGCGCGCGAUACCAGCCAAAUGGAUGGCCCUUGGCAGCGCAGCGAGUGAUGUUCGCCCGCUUGAC [Exclusion Theophylline A GF 22] | 251 | 239 | 302 | 354 | 232
AGAACUGUCUUGGAUACCAGUGAUGUUGGUAUCUGUGUGUGAGUGCAAAGCGUCCCACAUUGCCCUUGGCAGCUAAGACUGUUCA [Omei KL Theo B Exc A v1] | 147 | 129 | 137 | 182 | 132
AGAAGGAGAACUGCAAGAACUCCUUCAGACUAGGAUAUCAGGAAACUGAGAAGGAGUCAACUUGCAGUGAUGUUGCAAGAAUAAU [[F]''-[K]'-[F]'-[F1]-[F2]-[K1]-[K2]_Design1] | 155 | 114 | 119 | 103 | 131
AGACCUCAGUGAUGUUGAGGUAACGCUGAUACCAGUGACUUAAUUCACCCUUGGCAGCAGUCCACCAAGGUAUCUGAUUAGGUCU [Theo A Ex t5] | 153 | 163 | 133 | 144 | 138

Sequence | apparent KD of K4 kissing-loop reporter (input ligand: FMN 200 uM) [nM] | apparent KD of K4 kissing-loop reporter (input ligand: arginine 13.2 mM) [nM] | apparent KD of K4 kissing-loop reporter (input ligand: none) [nM] | apparent KD of K4 kissing-loop reporter [1] [nM] | apparent KD of K4 kissing-loop reporter [2] [nM]
AGACGCCAGUCGGCCGCCACUCACAGCAGUGAUGUUGCUGAGAAUCUAGAAGAGUGAUGUUCUUAGAGGACCGGGACUCCAGUCG [Same State Tryptophan B GF 7] | 354 | 363 | 383 | 311 | 306
AGACUACCACACUGUCAAUAGACAGUGAAUUAGGAUAUGCUGAUAAGCAGAAGGAGUGAUGUUCCGAGGUAGUCAAUAAAAUAAU [FmnAX 13 U30+G66] | 220 | 204 | 216 | 283 | 211
AGACUACCACACUGUCAAUAGACAGUGGACUAGGAUAUGCUGAUAAGCAGAAGGAGUGAUGUUCCUUGGUAGUCAAUAAAAUAAU [FmnAX 13 G28+U67] | 308 | 269 | 253 | 335 | 265
AGACUUCACCGAAGGAGCGACGUAGCCUAGUGAUGUUAGGCACGAGAGAAAUCUCGUGUACGUCAGGUAGGUCGCGGUGAAGUCA [Omei KL Arginine B SS C v5] | 990 | 630 | 961 | 827 | 1040
AGAGAUAUAUGAGGAUAUGAGUUAGUUAAUGAGUGAGUUUUAGUGUUGUUUGGUUAGUGAUGUUAUUUAGAAGGCGUGAGUGAUG [ttytmullin] | 98.8 | 75.2 | 74.9 | 106 | 75.9
AGAGGAAAUAGAAGGAGCGGCGCCAGUGAUGUUGGAUGCCGCGGGUGAAUCAGGUCAUAGUGCCAGGUAGGUCGCUAUUUCAGCG [Larebeve] | 177 | 112 | 141 | 161 | 138
AGAUAGGGCUGAAGGAGCGUCGGAAAAGAAAAGAUGAAAUCCAGUGAUGUUGGAUAAAUCCGACAGGUAGGUCGCAGUUUUAUGA [#01 K4 Arginine B Same State] | 126 | 129 | 133 | 161 | 120
AGCAGUCCAGGAUCGAAAGAUCCUGAGGUCCGAGGACCGGUACGGCCGCCACUCGGAGUGAUGUUCCGAAGACUGCAAAAUAAAA [#SwitchBubble 5] | 302 | 236 | 108 | 135 | 105
AGCAUUAUCAGAAGGAGCGUGUAUAAAUCAAUAGUAUUGUAUUCGAGUGAUGUUCGUAAUACACAGGUAGGUCGCUGAUAUUGCA [JR_ExcArginiB_Sub002] | 182 | 172 | 170 | 175 | 161
AGCAUUUUCAGAAGGAGCGUGAAUUAUUCUUAAUUAUAUUAUACGAGUGAUGUUCGUGUUUCACAGGUAGGUCGCUGAUAUAGCA [JR_SSArginiB_Sub004] | 51.4 | 90.3 | 47.7 | 98.3 | 45.5
AGCGAUGUUUUCUCUAAGAGUGAUGUUUUUCGAGGACCGGUACGGCCGCCACUCGAAUAAAGUGUGCGGUAGUGAGCUGUUGACA [#18 K4 Tryptophan A Exclusion] | 710 | 550 | 747 | 580 | 718
AGCGUCCCUACGGCCGCCACUGGGAGUGAUGUUCCCAGGUUAGGCCUGAGGAUACUAAGGAUCGCCAGGACCGGGUAGCGACCAU [Azaonbe] | 88.5 | 81.1 | 80.3 | 69.2 | 92.3
AGCUCAGAGUGACUCGAUAAGAGUCACAAACGAGGACCGGUACGGCCGCCACUCGAAAUAACGAGAGUGAUGUUCUCACUGAGCA [FiskerMod 11 - Jieux - Same State Tryptophan A] | 1150 | 635 | 1260 | 808 | 378
AGCUCAGAGUGACUCGAUAAGAGUCACAAACGAGGACCGGUACGGCCGCCACUCGAAAUAACGAGAGUGAUGUUCUCGCUGAGCA [#SwitchBubble 1 #StaticStem #K4Late] | 1160 | 517 | 1000 | 285 | 340
AGCUCAGAGUGACUCGAUAAGAGUCACAAACGAGGACCGGUACGGCCGCCACUCGAAAUAACGAGAGUGAUGUUUUCGCUGAGCA [FiskerMod 6 - Jieux - Same State Tryptophan A] | 935 | 630 | 857 | 660 | 541
